From patent US20230192881A1 (EDESA BIOTECH RESEARCH, published 2023) come the findings set out here.

Where “and” joins values, the source holds several entries; their conditions need not be identical. Identical values can stand only once.

One assay has as its target T1, mouse FcγRI (mouse, UniProt P26151 25-297, limits assumed).
T1 construct: also called mFcγRI; mouse FcyRI
T1 sequence (looked up): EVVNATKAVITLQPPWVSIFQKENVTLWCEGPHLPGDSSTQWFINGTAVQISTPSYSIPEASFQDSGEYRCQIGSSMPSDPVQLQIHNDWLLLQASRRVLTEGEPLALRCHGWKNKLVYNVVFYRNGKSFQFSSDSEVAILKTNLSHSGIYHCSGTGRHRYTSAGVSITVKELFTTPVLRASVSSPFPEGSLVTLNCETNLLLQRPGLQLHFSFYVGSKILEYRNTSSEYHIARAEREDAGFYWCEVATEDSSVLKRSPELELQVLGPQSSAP
The assay can be described thus: method not stated.

For another assay, the target named is T2, mouse FcγRII (mouse, UniProt P08101 30-210, limits assumed).
T2 construct: also called mFcγRII; mouse FcyRII
T2 sequence (looked up): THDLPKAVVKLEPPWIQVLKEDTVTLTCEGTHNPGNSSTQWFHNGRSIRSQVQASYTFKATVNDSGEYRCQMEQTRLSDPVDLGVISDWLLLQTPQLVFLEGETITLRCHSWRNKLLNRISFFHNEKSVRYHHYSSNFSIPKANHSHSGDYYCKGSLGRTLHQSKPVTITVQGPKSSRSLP
Description: method not stated.

A further assay addresses T3, mouse FcγRIII (mouse, UniProt P08508 31-215, limits assumed).
T3 construct: also called mFcγRIII
T3 sequence (looked up): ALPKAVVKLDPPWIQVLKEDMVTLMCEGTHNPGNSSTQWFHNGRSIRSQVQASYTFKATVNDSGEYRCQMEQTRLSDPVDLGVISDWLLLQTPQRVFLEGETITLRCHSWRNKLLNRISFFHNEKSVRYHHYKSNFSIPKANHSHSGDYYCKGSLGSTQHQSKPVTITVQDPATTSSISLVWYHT
The assay can be described thus: method not stated.

In the next assay the target is T4, mouse FcγRIV (mouse, UniProt A0A0B4J1G0 21-203).
T4 construct: also called mFcγRIV
T4 sequence: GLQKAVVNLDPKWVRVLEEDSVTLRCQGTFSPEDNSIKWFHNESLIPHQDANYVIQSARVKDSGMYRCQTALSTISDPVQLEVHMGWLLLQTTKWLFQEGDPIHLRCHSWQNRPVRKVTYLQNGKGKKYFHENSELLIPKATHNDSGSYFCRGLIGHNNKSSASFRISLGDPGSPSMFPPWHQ
The assay can be described thus: method not stated.

The next assay deals with T5, mouse FcRn (mouse, UniProt Q61559 22-297; P01887 21-119, limits assumed).
T5 construct: also called mFcRn
T5 sequence (looked up) 1: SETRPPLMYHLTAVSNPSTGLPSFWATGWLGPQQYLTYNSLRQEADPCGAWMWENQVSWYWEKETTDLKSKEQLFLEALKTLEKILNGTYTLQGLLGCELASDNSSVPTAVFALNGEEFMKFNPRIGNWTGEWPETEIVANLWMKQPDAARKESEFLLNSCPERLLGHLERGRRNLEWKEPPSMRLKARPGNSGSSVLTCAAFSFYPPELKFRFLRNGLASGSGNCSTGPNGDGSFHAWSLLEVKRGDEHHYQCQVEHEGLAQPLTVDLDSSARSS
T5 sequence (looked up) 2: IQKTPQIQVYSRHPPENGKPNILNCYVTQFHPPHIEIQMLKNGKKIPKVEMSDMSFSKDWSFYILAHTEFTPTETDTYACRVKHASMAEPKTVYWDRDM
The assay can be described thus: method not stated.

The target in assay [1] is T6, mouse TLR4 (mouse, UniProt Q9QUK6 26-629, limits assumed).
T6 sequence (looked up): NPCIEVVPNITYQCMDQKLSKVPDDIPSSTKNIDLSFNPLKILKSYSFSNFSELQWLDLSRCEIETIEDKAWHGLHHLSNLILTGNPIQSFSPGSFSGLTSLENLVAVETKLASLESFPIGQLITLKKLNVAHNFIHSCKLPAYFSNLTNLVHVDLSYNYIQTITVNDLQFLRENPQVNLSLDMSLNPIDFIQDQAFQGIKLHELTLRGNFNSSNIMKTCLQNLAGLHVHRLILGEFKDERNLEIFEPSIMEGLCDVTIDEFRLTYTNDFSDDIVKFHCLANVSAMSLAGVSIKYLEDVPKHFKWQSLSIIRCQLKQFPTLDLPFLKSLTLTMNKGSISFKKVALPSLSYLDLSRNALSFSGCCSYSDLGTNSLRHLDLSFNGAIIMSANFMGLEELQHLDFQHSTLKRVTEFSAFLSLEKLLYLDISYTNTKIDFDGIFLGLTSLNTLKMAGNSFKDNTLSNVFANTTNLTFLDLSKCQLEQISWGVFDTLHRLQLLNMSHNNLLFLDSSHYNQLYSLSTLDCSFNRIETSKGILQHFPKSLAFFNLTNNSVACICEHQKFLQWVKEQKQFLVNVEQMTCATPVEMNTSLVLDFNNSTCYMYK
Description: cell-based or functional assay.

Assay [2] concerns the target T6, mouse TLR4. The assay can be described thus: method not stated, average Kd.
Assay [3] has as its target T7, human TLR4 (human, UniProt O00206 24-839).
T7 construct: also called hTLR4; Toll-like Receptor 4
The assay can be described thus: KinExA.

Assay [4] deals with T7, human TLR4. The assay can be described thus: cell-based or functional assay.
For assay [5], the target named is T7, human TLR4. The assay can be described thus: cell-based or functional assay. This is another data set of the same source.
For the next assay, the target named is T8, human FcγRIIa 131H (human, UniProt P12318 36-218, limits assumed).
T8 sequence (looked up): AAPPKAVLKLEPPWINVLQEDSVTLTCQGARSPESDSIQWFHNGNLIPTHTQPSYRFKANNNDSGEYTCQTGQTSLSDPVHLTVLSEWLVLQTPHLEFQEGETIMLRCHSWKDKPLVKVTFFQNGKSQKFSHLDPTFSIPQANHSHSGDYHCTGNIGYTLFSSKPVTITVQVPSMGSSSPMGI
The assay can be described thus: surface plasmon resonance.

The next assay deals with T9, human FcγRIIb (human, UniProt P31994 43-217, limits assumed).
T9 construct: also called CD32b
T9 sequence (looked up): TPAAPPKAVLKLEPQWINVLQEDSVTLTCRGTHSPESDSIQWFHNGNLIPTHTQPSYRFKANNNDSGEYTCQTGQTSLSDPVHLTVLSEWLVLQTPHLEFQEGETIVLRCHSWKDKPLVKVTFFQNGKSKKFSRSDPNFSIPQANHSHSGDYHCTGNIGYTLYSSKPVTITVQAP
The assay can be described thus: surface plasmon resonance.

A further assay has as its target T10, human FcγRI (human, UniProt P12314 16-288, limits assumed).
T10 construct: also called CD64; FcyRI
The assay can be described thus: surface plasmon resonance.

The target of assay [6] is T11, human FcγRIIa 131R (human, UniProt P12318 36-218, limits assumed).
T11 sequence (looked up): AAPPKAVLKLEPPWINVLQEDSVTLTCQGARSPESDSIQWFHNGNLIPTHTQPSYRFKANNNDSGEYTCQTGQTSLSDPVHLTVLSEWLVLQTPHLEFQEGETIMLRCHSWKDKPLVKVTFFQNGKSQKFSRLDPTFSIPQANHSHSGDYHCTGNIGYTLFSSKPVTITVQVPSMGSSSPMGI
Description: surface plasmon resonance.

For assay [7], the target named is T7, human TLR4. The assay can be described thus: KinExA combined with ELISA, average Kd.
In assay [8] the target is T11, human FcγRIIa 131R. The assay can be described thus: surface plasmon resonance (refers to Table 9).

T7 sequence (O00206 24-839 limits assumed): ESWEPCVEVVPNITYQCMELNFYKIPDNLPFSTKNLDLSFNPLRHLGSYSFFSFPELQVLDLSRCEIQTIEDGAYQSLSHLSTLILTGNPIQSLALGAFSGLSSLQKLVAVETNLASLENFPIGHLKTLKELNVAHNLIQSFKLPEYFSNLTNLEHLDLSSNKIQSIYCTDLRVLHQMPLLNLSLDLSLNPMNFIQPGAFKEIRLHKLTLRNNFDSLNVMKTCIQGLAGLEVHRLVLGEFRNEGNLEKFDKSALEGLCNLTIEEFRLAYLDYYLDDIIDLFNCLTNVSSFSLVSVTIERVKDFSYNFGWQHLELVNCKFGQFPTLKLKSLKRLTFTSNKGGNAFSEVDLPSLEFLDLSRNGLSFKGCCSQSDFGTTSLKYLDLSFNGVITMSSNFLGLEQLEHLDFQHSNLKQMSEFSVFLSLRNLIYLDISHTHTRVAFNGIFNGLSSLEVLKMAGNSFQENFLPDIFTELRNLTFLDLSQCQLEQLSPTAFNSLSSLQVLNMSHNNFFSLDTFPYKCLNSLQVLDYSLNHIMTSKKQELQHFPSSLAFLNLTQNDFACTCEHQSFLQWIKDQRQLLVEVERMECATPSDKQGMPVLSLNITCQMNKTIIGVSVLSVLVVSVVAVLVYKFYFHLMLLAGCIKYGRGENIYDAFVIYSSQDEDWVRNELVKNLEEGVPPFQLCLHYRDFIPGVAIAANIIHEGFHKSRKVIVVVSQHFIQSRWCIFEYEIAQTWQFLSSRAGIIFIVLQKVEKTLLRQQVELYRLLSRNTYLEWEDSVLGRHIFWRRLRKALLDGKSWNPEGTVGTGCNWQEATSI
T10 sequence (P12314 16-288 limits assumed): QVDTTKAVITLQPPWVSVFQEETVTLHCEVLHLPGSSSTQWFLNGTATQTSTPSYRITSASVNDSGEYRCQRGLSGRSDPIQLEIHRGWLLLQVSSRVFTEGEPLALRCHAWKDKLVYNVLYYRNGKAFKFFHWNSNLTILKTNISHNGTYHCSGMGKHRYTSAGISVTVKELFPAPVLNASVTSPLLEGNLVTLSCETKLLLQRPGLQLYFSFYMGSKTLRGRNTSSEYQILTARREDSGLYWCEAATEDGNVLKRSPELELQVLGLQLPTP

B1: 5E3 (antibody, mouse IgG2a, kappa)
heavy: QIQLVQSGPELKKPGESVKISCKASGYTFTDYVMYWVKQAPGKGLKWMGWINTNTGKPTYADDFKGRFVFSLEASASTANLQISNLKNEDTATYFCTRGNYPGLRVMDAWGQGASVTVSSAKTTAPSVYPLAPVCGDTTGSSVTLGCLVKGYFPEPVTLTWNSGSLSSGVHTFPAVLQSDLYTLSSSVTVTSSTWPSQSITCNVAHPASSTKVDKKIEPRGPTIKPCPPCKCPAPNLLGGPSVFIFPPKIKDVLMISLSPIVTCVVVDVSEDDPDVQISWFVNNVEVHTAQTQTHREDYNSTLRVVSALPIQHQDWMSGKEFKCKVNNKDLPAPIERTISKPKGSVRAPQVYVLPPPEEEMTKKQVTLTCMVTDFMPEDIYVEWTNNGKTELNYKNTEPVLDSDGSYFMYSKLRVEKKNWVERNSYSCSVVHEGLHNHHTTKSFSRTPGK
light: DIQMTQSPSSMSVSLGDTVTITCRASQDVGIYVNWFQQKPGKSPRRLIFRATNLADGVPSRFSGSRSGSDYSLTISSLGSEDVAGYHCLQYDEYPLTFGSGTKLEIKRADAAPTVSIFPPSSEQLTSGGASVVCFLNNFYPKDINVKWKIDGSERQNGVLNSWTDQDSKDSTYSMSSTLTLTKDEYERHNSYTCEATHKTSTSPIVKSFNRNEC
notes: Chimeric anti-mouse TLR4 mAb: rat variable regions grafted onto a mouse IgG2a kappa Fc
With B1, the Kd in the assay with mouse FcγRI is 50.8 nM; with mouse FcγRII it was 3260 nM; with mouse FcγRIII, 505 nM; with mouse FcγRIV, 113 nM; with mouse FcRn, 2.93 nM; with mouse TLR4 [2] it was 0.027 nM. Besides, the “IC50, Blockade of LPS induced TLR4 signalling, mouse whole blood” value with mouse TLR4 [1] is 1.16 nM and 173 ng/mL.

B2: Hu 15C1 (antibody, V domains shown)
VH: QVQLQESGPGLVKPSDTLSLTCAVSGYSITGGYSWHWIRQPPGKGLEWMGYIHYSGYTDFNPSLKTRITISRDTSKNQFSLKLSSVTAVDTAVYYCARKDPSDAFPYWGQGTLVTVSS
VL: EIVLTQSPDFQSVTPKEKVTITCRASQSISDHLHWYQQKPDQSPKLLIKYASHAISGVPSRFSGSGSGTDFTLTINSLEAEDAATYYCQQGHSFPLTFGGGTKVEIK
notes: the rest is a non-mutated human IgG1 Fc
As to B2, binding with human TLR4 [3] was characterised by a dissociation constant (Kd) of 0.139 nM.

B3: NI-0101 (antibody, human IgG1, kappa)
heavy: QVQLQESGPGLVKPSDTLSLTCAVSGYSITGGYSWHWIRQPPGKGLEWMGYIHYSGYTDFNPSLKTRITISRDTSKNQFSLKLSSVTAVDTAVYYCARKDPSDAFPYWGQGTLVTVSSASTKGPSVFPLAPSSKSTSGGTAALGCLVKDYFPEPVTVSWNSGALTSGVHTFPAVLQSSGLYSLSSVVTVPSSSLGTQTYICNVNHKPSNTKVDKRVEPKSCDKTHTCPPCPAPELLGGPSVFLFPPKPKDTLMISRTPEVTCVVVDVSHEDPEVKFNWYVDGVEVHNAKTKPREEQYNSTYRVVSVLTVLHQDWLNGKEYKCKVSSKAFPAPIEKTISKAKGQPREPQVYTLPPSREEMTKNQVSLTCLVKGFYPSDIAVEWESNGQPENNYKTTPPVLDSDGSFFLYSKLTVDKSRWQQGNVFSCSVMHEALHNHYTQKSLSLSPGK
light: EIVLTQSPDFQSVTPKEKVTITCRASQSISDHLHWYQQKPDQSPKLLIKYASHAISGVPSRFSGSGSGTDFTLTINSLEAEDAATYYCQQGHSFPLTFGGGTKVEIKRTVAAPSVFIFPPSDEQLKSGTASVVCLLNNFYPREAKVQWKVDNALQSGNSQESVTEQDSKDSTYSLSSTLTLSKADYEKHKVYACEVTHQGLSSPVTKSFNRGEC
Take B3: in the assay with human TLR4 [4], the “IC50, LPS mediated cytokine production in human primary macrophages” value came to 0.0104 nM; the “IC50, LPS-induced IL-6 release in THP1 cells (FcγRIIa 131HH)” value turned out to be 0.0027 nM; the “IC50, LPS-induced IL-6 release in U937 cells (FcγRIIa 131RR)” value was 0.002 nM; the “IC50, LPS-induced IL-6 release in human whole blood, FcγRIIa 131HH donors” value is 2.19 nM. In the assay with human TLR4 [4], the “IC50, LPS-induced IL-6 release in human whole blood, FcγRIIa 131RH donors” value turned out to be 0.223 nM; the “IC50, LPS-induced IL-6 release in human whole blood, FcγRIIa 131RR donors” value was found to be 0.128 nM; the “IC50, Tenascin-C mediated cytokine production in human primary macrophages” value worked out at 0.022 nM; the “IC50, nickel mediated cytokine production in human primary macrophages” value came out at 0.015 nM. For the same molecule, in the assay with human TLR4 [5], the “IC50, Blockade of LPS induced TLR4 signalling, human whole blood (FcγRIIaHH)” value was 2.19 nM and 324 ng/mL. Besides, in the assay with human FcγRIIa 131H, the equilibrium dissociation constant (Kd) came to 311 nM. Besides, in the assay with human FcγRIIb, the Kd came to 870 nM. Besides, the affinity with human FcγRI, expressed as Kd, was 47.3 nM. This molecule returned a Kd in the assay with human FcγRIIa 131R [6] of 151 nM. Moreover, the Kd with human TLR4 [7] was 0.139 nM. Also, the “fold higher affinity than to the 131H variant” value with human FcγRIIa 131R [8] was 2 fold.
